Results on eight molecules are retold here after patent US20210380703A1.

B1: 373_C11 (antibody, V domains shown)
VH: EVQLLESGGGLVQPGGSLRLSCAASGFTFSSYSMNWVRQAPGKGLEWVSGINYNSGYTGYADSVKGRFTISRDNSKNTLYLQMNSLRAEDTAVYYCARSANWHDTALDYWGQGTLVTVSS
VL: DIQMTQSPSSLSASVGDRVTITCRASQSILTYVNWYQQKPGKAPKLVIYAVTSRASGVPSRFSGSGSGTDFTLTISSLQPEDFATYYCQQSYETPLTFGGGTKVEIK
B2: 373_E07 (antibody, V domains shown)
VH: EVQLLESGGGLVQPGGSLRLSCAASGFTFSSYGMNWVRQAPGKGLEWVANINYNGGYTSYADSVKGRFTISRDNSKNTLYLQMNSLRAEDTAVYYCARSANWHDTALDYWGQGTLVTVSS
VL: DIQMTQSPSSLSASVGDRVTITCRASQSILTYVNWYQQKPGKAPKLLIYAATSLASGVPSRFSGSGSGTDFTLTISSLQPEDFATYYCQQSYETPLTFGGGTKVEIK
B3: 373_D05 (antibody, V domains shown)
VH: EVQLLESGGGLVQPGGSLRLSCAASGFTFSSYSMNWVRQAPGKGLEWVSGINYNSGYKGYADSVKGRFTISRDNSKNTLYLQMNSLRAEDTAVYYCARSANWHDTALDYWGQGTLVTVSS
VL: DIQMTQSPSSLSASVGDRVTITCRASQSILSYLNWYQQKPGKAPKLVIYAATSRASGVPSRFSGSGSGTDFTLTISSLQPEDFATYYCQQSYDSPLTFGGGTKVEIK
B4: 373_E05 (antibody, V domains shown)
VH: EVQLLESGGGLVQPGGSLRLSCAASGFTFDSYGMNWVRQAPGKGLEWVSNINYNGGYTSYADSVKGRFTISRDNSKNTLYLQMNSLRAEDTAVYYCARSANWHDTALDYWGQGTLVTVSS
VL: DIQMTQSPSSLSASVGDRVTITCRASQSILSYVNWYQQKPGKAPKLLIYAVTSRASGVPSRFSGSGSGTDFTLTISSLQPEDFATYYCQQSYDLPLTFGGGTKVEIK
B5: 373_D01 (antibody, V domains shown)
VH: EVQLLESGGGLVQPGGSLRLSCAASGFTFDSYSMNWVRQAPGKGLEWVSGINYNSGYKSYADSVKGRFTISRDNSKNTLYLQMNSLRAEDTAVYYCARSANWHDTHLDYWGQGTLVTVSS
VL: DIQMTQSPSSLSASVGDRVTITCRASQSILSYVNWYQQKPGKAPKLVIYAATSRASGVPSRFSGSGSGTDFTLTISSLQPEDFATYYCQQSYDSPLTFGGGTKVEIK
B6: 373_D04 (antibody, V domains shown)
VH: EVQLLESGGGLVQPGGSLRLSCAASGFTFDSYSMNWVRQAPGKGLEWVSGINYNSGYKGYADSVKGRFTISRDNSKNTLYLQMNSLRAEDTAVYYCARSANWHDTALDYWGQGTLVTVSS
VL: DIQMTQSPSSLSASVGDRVTITCRASQSILSYLNWYQQKPGKAPKLLIYAATSRHSGVPSRFSGSGSGTDFTLTISSLQPEDFATYYCQQSYDSPLTFGGGTKVEIK
B7: 373_D10 (antibody, V domains shown)
VH: EVQLLESGGGLVQPGGSLRLSCAASGFTFDSYSMNWVRQAPGKGLEWVSNINYNSGYKGYADSVKGRFTISRDNSKNTLYLQMNSLRAEDTAVYYCARSANWHDTALDYWGQGTLVTVSS
VL: DIQMTQSPSSLSASVGDRVTITCRASQSILSYVNWYQQKPGKAPKLLIYAATSRASGVPSRFSGSGSGTDFTLTISSLQPEDFATYYCQQSYDLPLTFGGGTKVEIK
B8: 373_E01 (antibody, V domains shown)
VH: EVQLLESGGGLVQPGGSLRLSCAASGFTFSSYGMNWVRQAPGKGLEWVSGINYNGGYKGYADSVKGRFTISRDNSKNTLYLQMNSLRAEDTAVYYCARSANWHDTALDYWGQGTLVTVSS
VL: DIQMTQSPSSLSASVGDRVTITCRASQSIVSYVNWYQQKPGKAPKLLIYAATSRHSGVPSRFSGSGSGTDFTLTISSLQPEDFATYYCQQSYNNPLTFGGGTKVEIK

This assay deals with Human Fc (human). Put plainly: ELISA, negative control.
B1 showed an optical density of 0.171 OD.

In turn, B2 came in with an optical density of 0.294 OD.

The molecule B3 returned an optical density of 0.179 OD.

B4 had an optical density of 0.176 OD.

Molecule B5 came in with an optical density of 0.174 OD.

Turning to B6, the optical density amounted to 0.168 OD.

On to B7, for which the optical density stood at 0.189 OD.

B8 came in with an optical density of 0.16 OD.
